# Measured values as given in patent US20070212686A1 (WHITEHEAD INSTITUTE FOR BIOMEDICAL RESEARCH, published 2007).
# B1: murine T-cadherin (full-length), over-expressed on cells (receptor)
# chain: SIVVSPILIPENQRQPFPRDVGKVVDSDRPEGSKFRLTGKGVDQDPKGTFRINENTGSVSVTRTLDRETIATYQLYVETTDASGKTLEGPVPLEVIVIDQNDNRPIFREGPYIGHVMEGSPTGTTVMRMTAFDADDPATDNALWRYNIRQQTPDKPSPNMFYIDPEKGDIVTVVSPALLDRETLENPKYELIIEAQDMAGLDVGLTGTATATIVIDDKNDHSPKFTKKEFQARVEEGAVGVIVNLTVEDKDDPTTGAWRAAYTIINGNPGQSFEIHTNPQTNEGMLSVVKPLDYEISAFHTLLIKVENEDPLVPDVSYGPSSTATVHITVLDVNEGPVFYPDPMMVTKQENISVGSVLLTVNATDPDSLQHQTIRYSIYKDPAGWLSINPINGTVDTTAVLDRESPFVHNSVYTALFLAIDSGNPPATGTGTLLITLEDINDNAPVIYPTVAEVCDDARNLSVVILGASDKDLHPNTDPFKFEIHKQTVPDKVWKISKINNTHALVSLLQNLNKANYNLPIMVTDSGKPPMTNITDLKVQVCSCKNSKVDCNGAG
# modifications: GPI anchor at the C-terminus (said of T-cadherin in general in the background)
# notes: Expressed from the full-length cDNA in CHO, CHO-ER and Ba/F3 cells; also called pCDNA-Tcad; pBI-GFP-Tcad
# B2: HEK produced hexameric and high-molecular weight 5'FlagAcrp30 (ligand)
# chain: DYKDDDDKEDDVTTTEELAPALVPPPKGTCAGWMAGIPGHPGHNGTPGRDGRDGTPGEKGEKGDAGLLGPKGETGDVGMTGAEGPRGFPGTPGRKGEPGEAAYMYRSAFSVGLETRVTVPNVPIRFTKIFYNQQNHYDGSTGKFYCNIPGLYYFSYHITVYMKDVKVSLFKKDKAVLFTYDQYQEKNVDQASGSVLLHLEVGDQVWLQVYGDGDHNGLYADNVNDSTFTGFLLYHDTN
# notes: Pool of hexamers (6 chains) and HMW species (more than 6 chains), about 50% pure, made by ammonium sulfate precipitation and anion exchange; also called HEX & HMW; hexameric and HMW 5'Flag-Acrp30
# What was measured:
# [1] = molecular target: T1, bacterial-expressed 3'Flag-Acrp30 (full length) (murine, UniProt Q60994 18-247); assay: cell ELISA on CHO-T-cadherin cells, anti-Flag M2 detection
# T1 construct: The bacterial construct is not described; also called Full Length Acrp; bacterial expressed Flag-tagged full-length
# T1 sequence: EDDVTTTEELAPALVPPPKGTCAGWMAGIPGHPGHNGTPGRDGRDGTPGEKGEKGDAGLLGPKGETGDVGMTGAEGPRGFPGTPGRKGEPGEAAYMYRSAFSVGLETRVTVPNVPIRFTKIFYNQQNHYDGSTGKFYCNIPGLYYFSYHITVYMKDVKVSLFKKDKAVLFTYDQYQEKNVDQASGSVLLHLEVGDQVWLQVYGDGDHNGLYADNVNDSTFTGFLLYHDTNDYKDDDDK
# Protocol: (§1) CHO-ER cell lines infected with the bicistronic retroviral construct pBI-GFP-Tcad (referred to as CHO-T-cadherin) and control cells infected with pBI-GFP (referred to as CHO-GFP) were each grown in 96 well plates. One day after plating (1.5×10⁴/well), the cells were incubated in serum-free media for one hour, placed at 4° C. for thirty minutes, and blocked in PBS++ containing 4% dried milk for thirty minutes. Bacterial expressed Flag-tagged globular-Acrp30 bacterial expressed Flag-tagged full-length, or purified trimeric or hexameric and HMW 5′Flag-Acrp30 produced in HEK cells were incubated with the cells for one hour in blocking buffer at the indicated concentrations. The HEK expressed polypeptides were produced and purified by ammonium sulfate precipitation and anion-exchange chromatography. Pools containing the trimeric or a combination of hexamer and HMW 5′Flag-Acrp30 were identified by native gel electrophoresis and immunoblotting with a Flag antibody. The purity of these preparations was judged to be approximately 50% by Coomassie PAGE analysis. Protein concentration was determined by BCA assay (Pierce). The concentration of purified bacterial expressed proteins was determined by the absorbance at 280 nm and the calculated extinction coefficient derived from the primary amino acid sequence (Protean; DNAStar). […] The absorbance at 450 nm was measured with a plate reader.
# [2] = molecular target: B1; assay: cell ELISA on CHO-T-cadherin cells, anti-Flag M2 detection; concentration as trimer equivalents
# Protocol: as §1
Binder,binding result [1],EC50 [2]
B1,no binding,
B2,,25 to 50 nM
